Assay results published in patent US20170219596A1.

Columns and labels:
dCas9-SunTag10×_v4 = assay: cell-based or functional assay
[1] = target: mito-mCherry-4×GCN4pep with short linker (GGSGG; SEQ ID NO:3) (yeast); assay: quantitative fluorescence microscopy on mitochondria, normalized to a sfGFP-mCherry fusion; antibodies per 4× array, short linker
[2] = target: mito-mCherry-4×GCN4pep (yeast); assay: FRAP of scFv-GCN4-GFP bound to the mitochondrial scaffold in U2OS cells

| average GFP:mCherry molar ratio [1] | half-life of GFP fluorescence recovery (FRAP) [2] [min] | Substance | activation of CDKN1B transcription (mRNA by qPCR, K562 cells) (dCas9-SunTag10×_v4) [%] | activation of CXCR4 expression (CXCR4 protein level by FACS, K562 cells) (dCas9-SunTag10×_v4) [fold] |
| --- | --- | --- | --- | --- |
|  |  | scFv-GCN4-GFP-NLS-VP64 | 330 | 10 to 50 |
| 3.4 | 5 to 10 | scFv-GCN4-sfGFP-GB1 |  |  |
